Results published in US20250064890A1, “PROTEIN COMPOSITIONS FOR THE TREATMENT OF INFLAMMATORY DISEASES” (Unichem Laboratories Limited, priority 2021, published 2025).

Legend:
[1] = system: 5-Fluorouracil induced OM; test: Mucositis severity score, 5-FU induced OM in hamsters; format: in vivo, golden Syrian hamsters; details: for Mucositis score: after 12 days, scale 0-5
Experimental: (§1) To induce OM, animals were administered (except normal control) 5-Fluorouracil (5-FU) by intraperitoneal route at doses of 60 mg/kg & 40 mg/kg respectively on first two days. On Day 4, under anesthesia, with aim of enhancing OM, mechanical irritation of the oral mucosa were done using wire brush. Treatment was initiated from Day 4 to Day 12. For group 3 animals 100 μl of vehicle comprising of standard drug Dexamethasone at 0.1 mg was instilled in buccal cheek pouch. For group 4, 5 and 6 animals 100 μl of vehicle comprising of SEQ ID NO. 2 at 0.25 mg, 0.5 mg & 1 mg, respectively was instilled in buccal cheek pouch. At the end of treatment period, cheek pouch of the hamsters was exposed, Mucositis scoring was carried out and images were captured. The animals were then humanely sacrificed, cheek pouch/jugular mucosa were isolated and used for biomarker estimation and histopathological investigation by using ELISA method and Hematoxylin and Eosin (H&E) staining, respectively.
Mucositis severity was scored as given below: • Cheek pouch completely healthy—0; Mild erythema—1; • Severe erythema and superficial erosion—2; Formation of ulcers in one or more places—3; Cumulative ulcer formation about 50% of cheek pouch surface area—4; Complete ulceration of the cheek pouch mucosa—5.

[2] = system: oral (buccal) mucosa cells (TR146); test: Restoration of mitochondrial membrane potential (JC-1) against radiation induced damage; format: cell-based, human; details: for MMP: red/green JC-1 fluorescence ratio
Experimental: Oral buccal mucosal cells (TR146) were incubated overnight in 5% CO2 incubator at 37° C. for 24 h. […] After 24 h of treatment, cells were exposed to damage (5-FU 5 mM) for 1.25 h for chemotherapy induced inflammation and exposed to gamma radiation (3.5 kGy) using Cobalt 60 for radiation induced inflammation. After the exposure, the anti-apoptotic effect of SEQ ID NO 2 was determined by restoration of mitochondrial membrane depolarization by JC-1 staining and reduction in apoptotic cell populations (Annexin positive and subG0/G1 cells in cell cycle analysis).
After incubation, the supernatants were discarded and 100 μl of JC1-dye solution (prepared by diluting 1 mM DMSO stock into 10 μM in 1×PBS) was added to each well. The cells were then incubated with the dye in CO2 incubator at 37° C. for 15 min, after which the supernatant was removed, and the cells were washed twice with 1×PBS. 100 μl of 1×PBS was finally added to each well. Red fluorescence (excitation 550 nm, emission 600 nm) and green fluorescence (excitation 485 nm, emission 535 nm) were measured using Biotek Synergy HT plate reader. The mitochondrial membrane potential (Δψm) was calculated as the ratio of intensity of red fluorescence to intensity of green fluorescence.
The percentage increase/restoration in mitochondrial membrane potential (MMP) was calculated as: % Increase=[(R−X)/R]*100 • Where, X=Δψm corresponding to TI+5-FU treated cells or TI+radiation treated cells; R=Δψm corresponding to control cells (FU damaged or Radiation damaged alone)

NF-kB [3] = test: Multiplex analysis, chemotherapy (5-FU), TR146 cell lysates; format: cell-based, human
Experimental: (§2) Oral buccal mucosal cells (TR146) cells were incubated overnight at 37° C. in 5% CO2 incubator. […] The cells were then stimulated with 5-FU (10 mM) for another 24h for chemotherapy and with gamma radiation (3.5 kGy) using Cobalt 60 for radiotherapy. After 24 h, cell culture supernatants were collected from each well and stored at −20° C. till multiplex analysis. For NF-kB estimations, cell lysates were prepared. Levels of biomarkers were estimated using Magpix® multiplex machine. The cells treated with Amifostine (along with 5-FU or radiation) were considered as positive control (PC). Untreated cells (5-FU or radiation alone treated) were used as negative control (NC).
(§3) The percent modulation in each sample was determined as follows:
(§4) [{Concentration of biomarkers (pg/ml) in Control cells (5-FU or radiation alone treated)−Concentration of biomarkers (pg/ml) in SEQ ID NO: 2+5-FU or radiation treated cells)}/Concentration of biomarkers (pg/ml) in Control cells (5-FU or radiation alone treated)]*100

Interleukin-1β = Interleukin-1β in jugular mucosa (ELISA), 5-FU induced OM in hamsters; format: in vivo, golden Syrian hamsters; details: for IL-1β levels, % Decrease vs G2: G2 = OM + Vehicle
Experimental: as §1
Further, for biomarker estimation jugular mucosa was dissected out, tissue weighed and stored in ice cold 1×PBS. 100 mg of tissue was taken and in 1 ml of 1×PBS buffer. Supernatant of homogenate was used for analysis of TNF-α and Interleukin-1β using ELISA method as per manufacturers instruction. The levels of TNF-α and Interleukin-1β are given in Table 13, FIG. 2 and Table 14, FIG. 3, respectively.

NF-kB [4] = test: Multiplex analysis, radiotherapy, TR146 cell lysates; format: cell-based, human
Experimental: as §2, §3, §4

IL-12/IL-23p40 = test: Multiplex analysis, chemotherapy (5-FU), TR146; format: cell-based, human; details: for IL-12/IL-23p40 against chemotherapy induced levels: 5-FU, in words
Experimental: as §2, §3, §4

IL-6 = test: Multiplex analysis, chemotherapy (5-FU), TR146; format: cell-based, human; details: for IL-6 against chemotherapy induced levels: 5-FU, in words
Experimental: as §2, §3, §4

[5] = system: 5-Fluorouracil induced OM; test: Histopathology score of cheek pouch, 5-FU induced OM in hamsters; format: in vivo, golden Syrian hamsters; details: for Histopathology score, Mean: scale 1-5
Experimental: as §1
For histopathology the oral mucosa tissues were sectioned 5 μm thickness and stained with hematoxylin-eosin staining. For study histopathological the sections were analyzed by light microscopy.
The pouch/jugular mucosa were observed and scored for infiltration of inflammatory cells, vasodilatation, presence of hemorrhagic areas, edema, ulcerations, and abscesses.

[6] = hamsters suffering from OM, in words
[7] = 0.01 μg/ml + Radiation (3.5 kGy)
[8] = 100 μg/ml + Radiation (3.5 kGy)

B1: SEQ ID NO 2: recombinant lectin, variant of the S. rolfsii lectin amino acid sequence (reported as Rec-2 in WO 2010/095143) (protein)
chain: TYKITVRVYQTNPDAFFHPVEKTVWKYANGGTWTITDDQHVLTMGGSGTSGTLRFHADNGESFTATFGVHNYKRWCDIVTNLAADETGMVINQQYYSQKNREEARERQLSNYQVKNAKGRNFQIVYTEAEGNDLHANLIIG
- Mucositis score ([1]; G4, 0.25 mg/animal): 3.00±0.4
- Mucositis score ([1]; G5, 0.5 mg/animal): 2.8±0.3
- Mucositis score ([1]; G6, 1 mg/animal): 4.00±0.3
- mucositis score as compared to the untreated subjects [1, 6]: reduction
- MMP [2, 7]: 5.76
- % Increase in MMP (with respect to control) ([2]; 1 μg/ml + Radiation (3.5 kGy)): 36.6%
- % Increase in MMP (with respect to control) ([2]; 10 μg/ml + Radiation (3.5 kGy)): 17.8%
- MMP ([2]; 10 μg/ml + Radiation (3.5 kGy)): 5.43
- MMP ([2]; 50 μg/ml + Radiation (3.5 kGy)): 6.29
- % Increase in MMP (with respect to control) [2, 8]: 7.9%
- MMP [2, 8]: 4.97
- Percentage Inhibition NF-kB (NF-kB [3]; 0.1 μg/ml + 5-FU (10 mM)): 88.6%
- Percentage Inhibition NF-kB (NF-kB [3]; 10 μg/ml + 5-FU (10 mM)): 98.4%
- Percentage Inhibition NF-kB (NF-kB [3]; 25 μg/ml + 5-FU (10 mM)): 59.7%
- Percentage Inhibition NF-kB (NF-kB [3]; 50 μg/ml + 5-FU (10 mM)): 53%
- Percentage Inhibition NF-kB (NF-kB [3]; 100 μg/ml + 5-FU (10 mM)): 84.3%
- IL-1β levels, Mean (Interleukin-1β; G4, 0.25 mg/Animal): 79.10
- IL-1β levels, % Decrease vs G2 (Interleukin-1β; G4, 0.25 mg/Animal): 54.45%
- IL-1β levels, Mean (Interleukin-1β; G5, 0.5 mg/Animal): 105.66
- IL-1β levels, % Decrease vs G2 (Interleukin-1β; G5, 0.5 mg/Animal): 39.16%
- IL-1β levels, Mean (Interleukin-1β; G6, 1 mg/Animal): 101.96
- IL-1β levels, % Decrease vs G2 (Interleukin-1β; G6, 1 mg/Animal): 41.29%
- levels of IL-1β as compared to the untreated subjects (Interleukin-1β; [6]): reduction
- Percentage Inhibition NF-kB (NF-kB [4]; [7]): 11.8%
- Percentage Inhibition NF-kB (NF-kB [4]; 0.1 μg/ml + Radiation (3.5 kGy)): 9.9%
- Percentage Inhibition NF-kB (NF-kB [4]; 1 μg/ml + Radiation (3.5 kGy)): 9.9%
- Percentage Inhibition NF-kB (NF-kB [4]; 10 μg/ml + Radiation (3.5 kGy)): 4%
- Percentage Inhibition NF-kB (NF-kB [4]; 25 μg/ml + Radiation (3.5 kGy)): −4%
- Percentage Inhibition IL-12/IL-23p40 (IL-12/IL-23p40; 0.1 μg/ml + 5-FU (10 mM)): 13.5%
- Percentage Inhibition IL-12/IL-23p40 (IL-12/IL-23p40; 10 μg/ml + 5-FU (10 mM)): 33.8%
- Percentage Inhibition IL-12/IL-23p40 (IL-12/IL-23p40; 25 μg/ml + 5-FU (10 mM)): 36.8%
- Percentage Inhibition IL-12/IL-23p40 (IL-12/IL-23p40; 50 μg/ml + 5-FU (10 mM)): 42.6%
- Percentage Inhibition IL-12/IL-23p40 (IL-12/IL-23p40; 100 μg/ml + 5-FU (10 mM)): 36.6%
- IL-12/IL-23p40 against chemotherapy induced levels (IL-12/IL-23p40): lowering of levels
- IL-12/IL-23p40 against chemotherapy induced levels (IL-12/IL-23p40; listed as test items): downregulation
- Percentage Inhibition IL-6 (IL-6; 0.1 μg/ml + 5-FU (10 mM)): 5.4%
- Percentage Inhibition IL-6 (IL-6; 10 μg/ml + 5-FU (10 mM)): 7.8%
- Percentage Inhibition IL-6 (IL-6; 25 μg/ml + 5-FU (10 mM)): 18.2%
- Percentage Inhibition IL-6 (IL-6; 50 μg/ml + 5-FU (10 mM)): 38.6%
- Percentage Inhibition IL-6 (IL-6; 100 μg/ml + 5-FU (10 mM)): 42.2%
- IL-6 against chemotherapy induced levels (IL-6): lowering of levels
- IL-6 against chemotherapy induced levels (IL-6; listed as test items): downregulation
- Histopathology score, Mean ([5]; G4, 0.25 mg/Animal): 3
- Histopathology score, Mean ([5]; G5, 0.5 mg/Animal): 2
- Histopathology score, Mean ([5]; G6, 1 mg/Animal): 2.8
- histology score as compared to the untreated subjects [5, 6]: reduction
